Each block holds one substance with its values, some of them ahead of it.
Experiments:
[1] = target: IL-6 protein standard (R&D Systems 206-IL-010) (UniProt P05231); experiment: conventional Simoa sandwich on HD-1 (capture beads + detection antibody m11, SβG); IL-6 at 1 fM
[2] = target: IL-6 protein standard (R&D Systems 206-IL-010) (UniProt P05231); experiment: CARD-dELISA sandwich (capture beads + detection antibody m11, streptavidin-poly-HRP, tyramide); IL-6 at 0.1 fM
[3] = target: IL-6 protein standard (R&D Systems 206-IL-010) (UniProt P05231); experiment: conventional Simoa sandwich on HD-1 (capture beads + detection antibody m11, SβG); IL-6 at 50 fM
[4] = target: IL-6 protein standard (R&D Systems 206-IL-010) (UniProt P05231); experiment: CARD-dELISA sandwich (capture beads + detection antibody m11, streptavidin-poly-HRP, tyramide); IL-6 at 0.5 fM
[5] = target: IL-6 protein standard (R&D Systems 206-IL-010) (UniProt P05231); experiment: conventional Simoa sandwich on HD-1 (capture beads + detection antibody m11, SβG); IL-6 at 100 fM
[6] = target: IL-6 protein standard (R&D Systems 206-IL-010) (UniProt P05231); experiment: CARD-dELISA sandwich (capture beads + detection antibody m11, streptavidin-poly-HRP, tyramide); IL-6 at 50 fM
[7] = target: IL-6 protein standard (R&D Systems 206-IL-010) (UniProt P05231); experiment: CARD-dELISA sandwich (capture beads + detection antibody m11, streptavidin-poly-HRP, tyramide); IL-6 at 100 fM
[8] = target: IL-6 protein standard (R&D Systems 206-IL-010) (UniProt P05231); experiment: conventional Simoa sandwich on HD-1 (capture beads + detection antibody m11, SβG); IL-6 at 0.1 fM
[9] = target: IL-6 protein standard (R&D Systems 206-IL-010) (UniProt P05231); experiment: conventional Simoa sandwich on HD-1 (capture beads + detection antibody m11, SβG); IL-6 at 10 fM
[10] = target: IL-6 protein standard (R&D Systems 206-IL-010) (UniProt P05231); experiment: conventional Simoa sandwich on HD-1 (capture beads + detection antibody m11, SβG); IL-6 at 0.5 fM
[11] = target: IL-6 protein standard (R&D Systems 206-IL-010) (UniProt P05231); experiment: CARD-dELISA sandwich (capture beads + detection antibody m11, streptavidin-poly-HRP, tyramide); IL-6 at 10 fM
[12] = target: IL-6 protein standard (R&D Systems 206-IL-010) (UniProt P05231); experiment: CARD-dELISA sandwich (capture beads + detection antibody m11, streptavidin-poly-HRP, tyramide); IL-6 at 1 fM
[13] = target: human interleukin-10 (IL-10) protein standard (printed as Biolegend 501501) (human) (UniProt P22301); experiment: dSimoa sandwich (capture beads + detector m5), 150 pM streptavidin-DNA/15 min; IL-10 at 15 fM
Chain of UniProt P22301 (P22301 19-178 limits assumed): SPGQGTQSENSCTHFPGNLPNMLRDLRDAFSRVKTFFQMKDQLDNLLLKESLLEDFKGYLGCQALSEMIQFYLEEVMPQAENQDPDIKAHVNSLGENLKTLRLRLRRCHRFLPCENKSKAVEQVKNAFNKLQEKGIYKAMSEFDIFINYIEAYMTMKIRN

[14] = target: human interleukin-10 (IL-10) protein standard (printed as Biolegend 501501) (human) (UniProt P22301); experiment: conventional Simoa sandwich (capture beads + detector m5), 150 pM SβG/15 min; IL-10 at 0.0048 fM
[15] = target: human interleukin-10 (IL-10) protein standard (printed as Biolegend 501501) (human) (UniProt P22301); experiment: conventional Simoa sandwich (capture beads + detector m5), 150 pM SβG/5 min; IL-10 at 75 fM
[16] = target: human interleukin-10 (IL-10) protein standard (printed as Biolegend 501501) (human) (UniProt P22301); experiment: dSimoa sandwich (capture beads + detector m5), 150 pM streptavidin-DNA/15 min; IL-10 at 3 fM
[17] = target: human interleukin-10 (IL-10) protein standard (printed as Biolegend 501501) (human) (UniProt P22301); experiment: conventional Simoa sandwich (capture beads + detector m5), 150 pM SβG/5 min; IL-10 at 0.12 fM
[18] = target: human interleukin-10 (IL-10) protein standard (printed as Biolegend 501501) (human) (UniProt P22301); experiment: dSimoa sandwich (capture beads + detector m5), 150 pM streptavidin-DNA/15 min; IL-10 at 0.024 fM
[19] = target: human interleukin-10 (IL-10) protein standard (printed as Biolegend 501501) (human) (UniProt P22301); experiment: conventional Simoa sandwich (capture beads + detector m5), 150 pM SβG/15 min; IL-10 at 0.024 fM
[20] = target: human interleukin-10 (IL-10) protein standard (printed as Biolegend 501501) (human) (UniProt P22301); experiment: conventional Simoa sandwich (capture beads + detector m5), 150 pM SβG/15 min; IL-10 at 0.6 fM
[21] = target: human interleukin-10 (IL-10) protein standard (printed as Biolegend 501501) (human) (UniProt P22301); experiment: conventional Simoa sandwich (capture beads + detector m5), 150 pM SβG/5 min; IL-10 at 15 fM
[22] = target: human interleukin-10 (IL-10) protein standard (printed as Biolegend 501501) (human) (UniProt P22301); experiment: dSimoa sandwich (capture beads + detector m5), 150 pM streptavidin-DNA/15 min; IL-10 at 0.00096 fM
[23] = target: human interleukin-10 (IL-10) protein standard (printed as Biolegend 501501) (human) (UniProt P22301); experiment: conventional Simoa sandwich (capture beads + detector m5), 150 pM SβG/15 min; IL-10 at 15 fM
[24] = target: human interleukin-10 (IL-10) protein standard (printed as Biolegend 501501) (human) (UniProt P22301); experiment: conventional Simoa sandwich (capture beads + detector m5), 150 pM SβG/15 min; IL-10 at 0.12 fM
[25] = target: human interleukin-10 (IL-10) protein standard (printed as Biolegend 501501) (human) (UniProt P22301); experiment: conventional Simoa sandwich (capture beads + detector m5), 150 pM SβG/5 min; IL-10 at 0.024 fM
[26] = target: human interleukin-10 (IL-10) protein standard (printed as Biolegend 501501) (human) (UniProt P22301); experiment: dSimoa sandwich (capture beads + detector m5), 150 pM streptavidin-DNA/15 min; IL-10 at 0.6 fM
[27] = target: human interleukin-10 (IL-10) protein standard (printed as Biolegend 501501) (human) (UniProt P22301); experiment: conventional Simoa sandwich (capture beads + detector m5), 150 pM SβG/5 min; IL-10 at 0.0048 fM
[28] = target: human interleukin-10 (IL-10) protein standard (printed as Biolegend 501501) (human) (UniProt P22301); experiment: conventional Simoa sandwich (capture beads + detector m5), 150 pM SβG/15 min; IL-10 at 75 fM
[29] = target: human interleukin-10 (IL-10) protein standard (printed as Biolegend 501501) (human) (UniProt P22301); experiment: conventional Simoa sandwich (capture beads + detector m5), 150 pM SβG/5 min; IL-10 at 3 fM
[30] = target: human interleukin-10 (IL-10) protein standard (printed as Biolegend 501501) (human) (UniProt P22301); experiment: dSimoa sandwich (capture beads + detector m5), 150 pM streptavidin-DNA/15 min; IL-10 at 0.12 fM
[31] = target: human interleukin-10 (IL-10) protein standard (printed as Biolegend 501501) (human) (UniProt P22301); experiment: conventional Simoa sandwich (capture beads + detector m5), 150 pM SβG/15 min; IL-10 at 3 fM
[32] = target: human interleukin-10 (IL-10) protein standard (printed as Biolegend 501501) (human) (UniProt P22301); experiment: dSimoa sandwich (capture beads + detector m5), 150 pM streptavidin-DNA/15 min; IL-10 at 0.0048 fM
[33] = target: human interleukin-10 (IL-10) protein standard (printed as Biolegend 501501) (human) (UniProt P22301); experiment: conventional Simoa sandwich (capture beads + detector m5), 150 pM SβG/5 min; IL-10 at 0.6 fM

Chain of UniProt P05231 (P05231 30-212 limits assumed): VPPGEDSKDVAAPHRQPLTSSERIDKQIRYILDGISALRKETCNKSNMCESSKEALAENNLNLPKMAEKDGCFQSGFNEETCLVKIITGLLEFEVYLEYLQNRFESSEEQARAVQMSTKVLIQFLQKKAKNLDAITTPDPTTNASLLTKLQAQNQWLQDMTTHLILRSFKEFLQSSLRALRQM

average AEB [1]: 0.0151 AEB
average AEB [2]: 0.0031 AEB
average AEB [3]: 0.522 AEB
average AEB [4]: 0.005 AEB
average AEB [5]: 1.03 AEB
average AEB [6]: 0.0937 AEB
average AEB [7]: 0.171 AEB
average AEB [8]: 0.005 AEB
average AEB [9]: 0.111 AEB
average AEB [10]: 0.0098 AEB
average AEB [11]: 0.0151 AEB
average AEB [12]: 0.0058 AEB
Substance: IL-6 capture antibody (R&D Systems MAB206)

average AMB [13]: 0.561 AMB
average AEB [14]: 0.0355 AEB
average AEB [15]: 1.41 AEB
average AMB [16]: 0.121 AMB
average AEB [17]: 0.0208 AEB
average AMB [18]: 0.0058 AMB
average AEB [19]: 0.0439 AEB
average AEB [20]: 0.05 AEB
average AEB [21]: 0.306 AEB
average AMB [22]: 0.0045 AMB
average AEB [23]: 0.386 AEB
average AEB [24]: 0.0395 AEB
average AEB [25]: 0.0218 AEB
average AMB [26]: 0.0281 AMB
average AEB [27]: 0.0194 AEB
average AEB [28]: 2.05 AEB
average AEB [29]: 0.0765 AEB
average AMB [30]: 0.0097 AMB
average AEB [31]: 0.107 AEB
average AMB [32]: 0.0042 AMB
average AEB [33]: 0.0296 AEB
Substance: IL-10 capture antibody (Biolegend 506802)
